# Experimental data from article PMC3246216 (2012).
# Where a chain is given by its changes, count along the chain named.
# T1: Gcn4 101-134 (Saccharomyces cerevisiae, UniProt P03069)
# T1 chain: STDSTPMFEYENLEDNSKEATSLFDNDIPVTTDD
# T2: Gcn4 101-134 (Saccharomyces cerevisiae, UniProt P03069)
# T2 chain: T1 chain with A20W
# T3: Gcn4 101-134 (Saccharomyces cerevisiae, UniProt P03069)
# T3 chain: T1 chain with A20W, F24A
# B1: Gal11/Med15 158-238 (protein)
# chain: QRRQLTPQQQQLVNQMKVAPIPKQLLQRIPNIPPNINTWQQVTALAQQKLLTPQDMEAAKEVYKIHQQLLFKARLQQQQAQ
# B2: Gal11/Med15 158-238 (protein)
# chain: B1 chain with M56A
# How the values were obtained:
# Assay in all cases: ITC
# Gcn4 101-134 [1] = biological target: T1, Gcn4 101-134
# Gcn4 101-134 [2] = biological target: T2, Gcn4 101-134
# Gcn4 101-134 [3] = biological target: T3, Gcn4 101-134
Binder,Kd (Gcn4 101-134 [1]) [µM],Kd (Gcn4 101-134 [2]) [µM],Kd (Gcn4 101-134 [3]) [µM]
B1,56,10.1,65
B2,,76,
